Data published in patent US10562935B2, “Stapled peptides and uses thereof” (London Health Sciences Centre Research Inc., priority 2015, dated 2020).
Bridges are numbered along the chain shown (N, C = ends).

How the values were obtained:
[1] = Circular dichroism (CD) spectroscopy of linear and stapled peptides in water or 40% TFE/water (Example 3); assay type: physicochemical; conditions: for [0]208 mean residue ellipticity: λ = 208 nm; for [0]222 mean residue ellipticity: λ = 222 nm
How it was run: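 Spectra 180–260 nm at 20 °C, 0.5 mM N-acetylated, C-amidated peptides in 0.1M phosphate buffer (water) or 40% TFE/water, 1 mm path, five scans averaged, buffer baseline subtracted. Mean residue ellipticity reported at 222 and 208 nm with the 222/208 ratio as helicity index.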

[2] = system: RHAMM-overexpressing (LR21) cells; assay: Cell migration assay (Boyden chamber, Chemicon ECM510); assay type: cell-based; conditions: for inhibition of cell migration (in words): 10 ng/mL peptide, 20 hours, compared to 30% serum control; for Migration (% inhib.): % inhibition relative to positive control
How it was run: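 Serum-starved LR21 cells (7.5×10^4) placed in the upper Boyden chamber with or without 10 ng/mL peptide, with 30% FBS in DMEM as lower-chamber chemoattractant. Cells crossing the membrane after 20 h quantified by CyQUANT GR fluorescence (480/520 nm); mean of n=3, compared with 30% serum control.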

NF-κB = assay: Inflammation assay: NF-κB inducible SEAP reporter in RAW-Blue macrophages stimulated with PAM3CSK4; assay type: cell-based, murine; conditions: % inhibition relative to positive control
Procedure: Compounds 132, 133, 135, 150, 152, 157-161, 265-269, 275, 277, and 278 were evaluated for their ability to inhibit inflammation. To determine the effect of the peptides on inflammation, commercially available murine RAW 264.7 macrophages carrying a secreted embryonic alkaline phosphatase (SEAP) reporter that is inducible by NF-κB (RAW-Blue; InvivoGen, San Diego, Calif., USA) were used. Cells were grown to 80% confluence in DMEM containing 4.5 g/L glucose, 10% heat-inactivated fetal bovine serum, 2 mM L-glutamine, 50 μg/mL penicillin/streptomycin, 100 μg/mL Normocin (InvivoGen) at 37° C. in 5% CO2. For peptide screening experiments, cells were scraped in growth medium, counted, and plated to flat-bottom 96-well plates at a density of 5×10^4 cells/well either in the presence or absence (control) of 200 ng/mL TLR1/TLR2 agonist PAM3CSK4 (InvivoGen). Peptides were added in 6 replicate wells at a dose of 10 ng/mL in the presence of PAM3CSK4. After 18 hours of stimulation, SEAP concentrations (indicating NF-κB activity) were measured in the supernatants collected from the RAW-Blue cells using QUANTI-BLUE reagent (InvivoGen). After 20 minutes of incubation at 37° C., SEAP levels were determined using spectrophotometry at a wavelength of 630 nm.
Values are the mean and SDM of n=3 replicates. *p<0.05 and ***p<0.001 compared to +PAM3. In FIGS. 44 and 45, where bars are labeled with two compound numbers (“133/150” and “135/152”) this means that the data were pooled for the indicated compounds, i.e., for the non-acetylated and acetylated versions of the indicated peptides.

[3] = system: IMR90 human fetal lung fibroblasts; assay: Fibrosis assay: active TGF-β levels in TGF-β treated fibroblasts (ELISA); assay type: cell-based; conditions: % inhibition relative to positive control
Procedure: Compounds 132, 133, 135, 150, 152, 157-161, 265-269, 275, 277, and 278 were evaluated for their ability to inhibit fibrosis. IMR90 human fetal lung fibroblasts were obtained from ATCC and maintained in DMEM supplemented with 10% fetal bovine serum. In order to examine the effect of peptides on myofibroblast differentiation, 80% confluent cultures were serum starved overnight prior to addition of TGF-β (2 ng/mL, R&D Systems). Cells were treated with TGF-β for 24 hours prior to addition of peptides (10 ng/mL). 48 hours after addition of peptides, culture supernatants were collected and levels of active TGF-β measured using commercially available TGF-β ELISA (Quantikine, R&D Systems).
Values are the Mean and SDM n=3 replicates. *p<0.05, **p<0.01, ***p<0.001 when compared to the +TGFβ1 control. In FIG. 47, where bars are labeled with two compound numbers (“133/150” and “135/152”) this means that the data were pooled for the indicated compounds, i.e., for the non-acetylated and acetylated versions of the indicated peptides.

[4] = [θ]222/[θ]208 ratio in water, summary tables 15, 17, 19
[5] = as repeated in tables 16, 18, 20

Substance	[θ]222/[θ]208 ratio of ellipticities [1, 4]	[θ]222/[θ]208 ratio of ellipticities [1, 5]	[0]222/[0]208 ratio of ellipticities ([1]; in 40% TFE/water)	[0]222/[0]208 ratio of ellipticities ([1]; in water)	[0]208 mean residue ellipticity ([1]; in 40% TFE/water) [deg cm^2 dmol^−1]	[0]208 mean residue ellipticity ([1]; in water)	[0]222 mean residue ellipticity ([1]; in 40% TFE/water) [deg cm^2 dmol^−1]	[0]222 mean residue ellipticity ([1]; in water) [deg cm^2 dmol^−1]	inhibition of cell migration (in words) [2]	Migration (% inhib.) [2] [% inhib.]	Inflammation (% Inhib.) (NF-κB)	Fibrosis (% inhib.) [3] [% inhib.]	alpha-helical character by CD (in words) ([1]; in water)
Ac-(cyclo-5,9)-NLKQ[EIKHK]VKLKDE-NH2 (Ac-NLKQEIKHKVKLKDE-NH2; lactam 5-9; SMILES CC[C@H](C)[C@@H]1NC(=O)[C@@H](NC(=O)[C@H](CCC(N)=O)NC(=O)[C@H](CCCCN)NC(=O)[C@H](CC(C)C)NC(=O)[C@H](CC(N)=O)NC(C)=O)CCC(=O)NCCCC[C@@H](C(=O)N[C@H](C(=O)N[C@@H](CCCCN)C(=O)N[C@@H](CC(C)C)C(=O)N[C@@H](CCCCN)C(=O)N[C@@H](CC(=O)O)C(=O)N[C@@H](CCC(=O)O)C(N)=O)C(C)C)NC(=O)[C@H](Cc2c[nH]cn2)NC(=O)[C@H](CCCCN)NC1=O) [Compound 158]	0.43	0.43	0.84	0.43	-1.70E+04	-6.60E+03 deg cm^2 dmol^−1	-1.24E+04	-2.83E+03	significantly inhibit cell migration	43	0	31	–
Ac-(cyclo-6,10)-NLKQK[EKHVK]KLKDE-NH2 (Ac-NLKQKEKHVKKLKDE-NH2; lactam 6-10; SMILES CC(=O)N[C@@H](CC(N)=O)C(=O)N[C@@H](CC(C)C)C(=O)N[C@@H](CCCCN)C(=O)N[C@@H](CCC(N)=O)C(=O)N[C@@H](CCCCN)C(=O)N[C@H]1CCC(=O)NCCCC[C@@H](C(=O)N[C@@H](CCCCN)C(=O)N[C@@H](CC(C)C)C(=O)N[C@@H](CCCCN)C(=O)N[C@@H](CC(=O)O)C(=O)N[C@@H](CCC(=O)O)C(N)=O)NC(=O)[C@H](C(C)C)NC(=O)[C@H](Cc2c[nH]cn2)NC(=O)[C@H](CCCCN)NC1=O) [Compound 159]	0.44	0.44	0.85	0.44	–	-5.95E+03 deg cm^2 dmol^−1	-1.26E+04	-2.61E+03	–	0	0	50	–
Ac-VSKLRSQLVKRKQN-NH2 [Compound 132]	0.13	0.13	0.72	0.13	-1.59E+04	-4,85E+03 deg cm^2 dmol^−1	-1.14E+04	-1.10E+03	significantly inhibit cell migration	36	0	0	nominal alpha helical character in water
